B1: IsdH NEAT2 (IsdH^N2), residues Gln321-Asn464 (domain or fragment)
chain: QQYPPADESLQDAIKNPAIIDKEHTADNWRPIDFQMKNDKGERQFYHYASTVEPATVIFTKTGPIIELGLKTASTWKKFEVYEGDKKLPVELVSYDSDKDYAYIRFPVSNGTREVKIVSSIEYGENIHEDYDYTLMVFAQPITN
B2: IsdB^N1-L, IsdB residues Leu125-Asn339 (NEAT 1 domain with the linker) (domain or fragment)
chain: LNQELREAIKNPAIKDKDHSAPNSRPIDFEMKKKDGTQQFYHYASSVKPARVIFTDSKPEIELGLQSGQFWRKFEVYEGDKKLPIKLVSYDTVKDYAYIRFSVSNGTKAVKIVSSTHFNNKEEKYDYTLMEFAQPIYNSADKFKTEEDYKAEKLLAPYKKAKTLERQVYELNKIQDKLPEKLKAEYKKKLEDTKKALDEQVKSAITEFQNVQPTN
B3: IsdH NEAT1 (IsdH^N1), residues Ala86-Leu229 (domain or fragment)
chain: ADESLKDAIKDPALENKEHDIGPREQVNFQLLDKNNETQYYHFFSIKDPADVYYTKKKAEVELDINTASTWKKFEVYENNQKLPVRLVSYSPVPEDHAYIRFPVSDGTQELKIVSSTQIDDGEETNYDYTKLVFAKPIYNDPSL

Target: human methemoglobin (metHb) (human, UniProt P69905;P68871)
Assay: SEC

Sequence of human methemoglobin (metHb) (P69905 whole entry, chain 1 of 2): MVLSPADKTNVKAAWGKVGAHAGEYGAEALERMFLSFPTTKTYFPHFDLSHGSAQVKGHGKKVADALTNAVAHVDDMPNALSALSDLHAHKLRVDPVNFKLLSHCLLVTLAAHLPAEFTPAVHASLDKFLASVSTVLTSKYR
Sequence of human methemoglobin (metHb) (P68871 whole entry, chain 2 of 2): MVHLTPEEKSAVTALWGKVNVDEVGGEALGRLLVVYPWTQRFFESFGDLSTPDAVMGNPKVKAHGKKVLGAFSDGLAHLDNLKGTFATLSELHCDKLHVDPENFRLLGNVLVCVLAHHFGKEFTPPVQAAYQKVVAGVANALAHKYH

| Binder | stoichiometry N |
| --- | --- |
| B1 | 1 IsdH NEAT domain per metHb (alpha/beta dimer) |
| B2 | < 1 IsdB^N1-L per metHb |
| B3 | 1 IsdH NEAT domain per metHb (alpha/beta dimer) |
